Measurements reported in patent publication US20210324359A1, “USE OF GRAM-NEGATIVE LYSIN-ANTIMICROBIAL PEPTIDE (AMP) POLYPEPTIDE CONSTRUCTS IN TREATING ENDOCARDITIS” (priority 2020, published 2021).

Tests used:
P. aeruginosa = assay: MIC, modified CLSI broth microdilution in CAA medium without or with […] human serum (Table 4); type: cell-based, Pseudomonas aeruginosa; for CAA/HuS MIC: CAA supplemented with 2.5% human serum
From the text: 2015. […] Clinical and Laboratory Standards Institute, Wayne, Pa.

[1] = tested on: Pseudomonas aeruginosa strain CFS-1292 (meropenem resistant); conditions: strain CFS-1292; no added cations
Procedure: The activity of selected GN lysins and constructs in the presence of divalent cations was evaluated, and the impact of divalent cations at physiological concentrations was examined in the MIC assay format.

[2] = tested on: P. aeruginosa strain WC-453; assay: Time-kill assay in HEPES or CAA with 25% human serum (Tables 7, 8); type: cell-based, Pseudomonas aeruginosa; conditions: for CAA/HuS (Log10 CFU/mL), 1 hr / CAA/HuS (Log10 CFU/mL), 3 hr: CAA + 25% human serum; for CAA/HuS (Log10 CFU/mL), 1 hr / CAA/HuS (Log10 CFU/mL), 3 hr / HEPES (Log10 CFU/mL), 1 hr / HEPES (Log10 CFU/mL), 3 hr: lysin 10 μg/ml, WC-453; for HEPES (Log10 CFU/mL), 1 hr / HEPES (Log10 CFU/mL), 3 hr: 25 mM HEPES pH 7.4
Procedure: Exponential phase bacteria were then pelleted and resuspended in 1/5 culture volume of 25 mM HEPES, pH 7.4 before a final adjustment to an optical density corresponding to a McFarland value of 0.5. […] All treatments were incubated at 37° C. with aeration. At time points before the addition of lysin (or buffer control) and at 1 hour and 3 hours intervals thereafter, culture samples were removed for quantitative plating on CAA agar plates.

[3] = tested on: biofilms formed by P. aeruginosa strain ATCC 17646; conditions: strain ATCC 17646 biofilm
Procedure: (§1) Biofilms are then washed and treated with e.g., a 2-fold dilution series of the lysin in TSBg at e.g., 37° C. for 24 hours. After treatment, wells are washed, air-dried at e.g., 37° C. and stained with e.g., 0.05% crystal violet for 10 minutes.

P. aeruginosa isolates = assay: MIC against a range of isolates in CAA + […] human serum (Table 11); type: cell-based, Pseudomonas aeruginosa
[4] = tested on: Pseudomonas aeruginosa strain CFS-1292 (meropenem resistant); assay: MIC in 25% CAA alone, with […] human serum or […] SURVANTA (Table 13); type: cell-based
Procedure: (§2) Materials and methods: MICs were determined by broth microdilution in media supplemented with human serum and pulmonary surfactant ([…]®; Myoderm Clinical Supplies). Minimal biofilm eradicating concentrations (MBECs) were determined using standard methods. […] Fluorescence microscopy was performed after LIVE/DEAD staining (ThermoFisher) and TEM was performed.

[5] = tested on: Pseudomonas aeruginosa biofilm; assay: MBEC in CAA supplemented with […] human serum (Table 14); type: cell-based
Procedure: as §1, §2

[6] = tested on: outer membrane of P. aeruginosa (CFS 1292); assay: N-phenyl-1-napthylamine (NPN) uptake assay, outer membrane destabilization (Table 15); type: cell-based, Pseudomonas aeruginosa; conditions: NPN fluorescence, buffer = 100, lysin 100 μg/well
Procedure: The ability of gram-negative lysins to destabilize the outer membrane of P. aeruginosa was evaluated through the use of an N-phenyl-1-napthylamine (NPN) uptake assay. […] NPN was added to a final concentration of […]. […] Changes in fluorescence were recorded (excitation 1=350 nm; emission 1=420 nm) over two hours.

P. aeruginosa strains = assay: Checkerboard synergy with meropenem in 25% CAA and […] human serum (Table 16); type: cell-based, Pseudomonas aeruginosa; conditions: for FICI value (Run #1), with meropenem / FICI value (Run #2), with meropenem: 25% CAA and […] human serum
[7] = tested on: carbapenem-resistant P. aeruginosa strains; assay: Resensitization of carbapenem-resistant strains, combinations with imipenem or meropenem (Tables 18-22); type: cell-based, Pseudomonas aeruginosa; conditions: for FICI: isolate WC-452
[8] = tested on: carbepenam-resistant clinical isolate WC-453; assay: MIC in CAA without or with 25% human serum (Table 5); type: cell-based, Pseudomonas aeruginosa; conditions: for CAA/HuS MIC: CAA supplemented with 25% human serum
Procedure: MIC values were determined using a modification of the standard broth microdilution reference method defined by the Clinical and Laboratory Standards Institute (CLSI), CLSI. […] Methods for Dilution Antimicrobial Susceptibility Tests for Bacteria That Grow Aerobically; Approved Standard-10th Edition. Clinical and Laboratory Standards Institute, Wayne, Pa.

[9] = Isoelectric point (pI) of the polypeptides; type: physicochemical
From the text: By comparing the sequences and components of the various polypeptides, the effect of a particular structural modification on isoelectric point (a higher pI favors outer membrane penetration) and activity (as assessed by MIC) can be determined.

B1: GN428: lysin obtained from Escherichia virus CBA120 (SEQ ID NO: 60) (protein, listed as Escherichia virus)
chain: MAILKLGNRGSEVKALQQSLNKIGFSLTADGIFGKATENAVKSVQAGAGLVIDGIAGPKTFYAIRNAGDAHQEHLTEADLVDAARELGVELASMKAVNQVESRGTGFTKTGKIKTLFERHIMYKKVTAKFGQARANALYQLYPTLVNPNSGGYIGGDAELERLQGAIALDEDCAYESASYGLFQIMGFNCQICGYSNAKEMFTDFLTGERAHLLAFVKFIKADANMWKALKNKNWAEFARRYNGPAYAKNQYDTKLAAAYKSFC
For B1, the “CAA MIC” value (P. aeruginosa; CAA medium, no human serum) was 8000 µg/mL, the “CAA/HuS MIC” value (P. aeruginosa; CAA supplemented with […] human serum) was 125 µg/mL and the “MIC in 25% CAA” value [1] was 4 µg/mL. The “bactericidal activity (CFU decrease of 3-Log10, 3 hours after the addition of lysin)” value ([2]; 10 μg/mL, enumerated lysins in CAA/HuS, general statement for HEPES and CAA/HuS) was “bactericidal activity”, the “CAA/HuS (Log10 CFU/mL), 1 hr” value [2] was 5.5 Log10 CFU/mL and the “CAA/HuS (Log10 CFU/mL), 3 hr” value [2] was under 3.7 Log10 CFU/mL. The MBEC [3] was 1 µg/mL, the “activity against P. aeruginosa isolates in human serum or SURVANTA” value (P. aeruginosa isolates; Tables 11 and 12) was “active against a variety of P. aeruginosa isolates” and the “MIC, CAA + […] Human Serum” value (P. aeruginosa isolates; strain CFS 1109 (ATCC 17646)) was 1 µg/mL. For the same molecule, the “MIC, CAA + […] Human Serum” value (P. aeruginosa isolates; strain CFS 1292) was 2 µg/mL, the “MIC, CAA + […] Human Serum” value (P. aeruginosa isolates; strain CFS1539 (PA1)) was 1 µg/mL and the “MIC, CAA + […] Human Serum” value (P. aeruginosa isolates; strain CFS 1540 (PA2)) was 1 µg/mL. For the same molecule, the “MIC, CAA + […] Human Serum” value (P. aeruginosa isolates; strain CFS 1541 (PA3)) was 1 µg/mL, the “MIC, CAA + […] Human Serum” value (P. aeruginosa isolates; strain CFS 1557 (PA19)) was 4 µg/mL and the “MIC, CAA + […] Human Serum” value (P. aeruginosa isolates; strain CFS 1558 (PA20)) was 2 µg/mL. For the same molecule, the “MIC, CAA + […] Human Serum” value (P. aeruginosa isolates; strain CFS 1559 (PA21)) was 2 µg/mL, the “MIC, CAA + […] Human Serum” value (P. aeruginosa isolates; strain CFS 1560 (PA22)) was 2 µg/mL and the “MIC, CAA + […] Human Serum” value (P. aeruginosa isolates; strain CFS 1561 (PA23)) was 2 µg/mL. For the same molecule, the “MIC, CAA + […] Human Serum” value (P. aeruginosa isolates; strain CFS 1562 (PA24)) was 2 µg/mL, the “MIC, CAA + […] Human Serum” value (P. aeruginosa isolates; strain CFS 1596 (PA26)) was 1 µg/mL and the “MIC, CAA + […] Human Serum” value (P. aeruginosa isolates; strain CFS 1597 (PA27)) was 0.5 µg/mL. For the same molecule, the “MIC, CAA + […] Human Serum” value (P. aeruginosa isolates; strain CFS 1669 (PA41)) was 2 µg/mL, the “MIC, CAA + […] Human Serum” value (P. aeruginosa isolates; strain CFS 1674 (PA46)) was 2 µg/mL and the “MIC, CAA + […] Human Serum” value (P. aeruginosa isolates; strain CFS 1675 (PA47)) was 1 µg/mL. The “MIC, CAA + […] Human Serum” value (P. aeruginosa isolates; strain CFS 1766 (ATCC 27853)) was 4 µg/mL, the “MIC in […] Survanta” value [4] was 4 µg/mL and the “MIC in human serum ([…]) in CAA” value [4] was 0.125 µg/mL. For the same molecule, the “activity in human serum and pulmonary surfactant” value [4] was “active in human serum and pulmonary surfactant”, the “25% CAA MIC” value ([4]; media alone) was 4 and the “MBEC in CAA supplemented with […] human serum” value [5] was 1 µg/mL. The “% RFU” value ([6]; 5 minutes) was 194 % RFU, the “% RFU” value ([6]; 10 minutes) was 242 % RFU and the “% RFU” value ([6]; 20 minutes) was 271 % RFU. For the same molecule, the “% RFU” value ([6]; 40 minutes) was 250 % RFU, the “% RFU” value ([6]; 60 minutes) was 183 % RFU and the “% RFU” value ([6]; 100 minutes) was 137 % RFU. The synergy with meropenem (P. aeruginosa strains; FICI less than or equal to 0.5 = potent synergy) was “exhibited synergy with meropenem”, the “FICI value (Run #1), with meropenem” value (P. aeruginosa strains; strain CFS 1292) was 0.1875 and the “FICI value (Run #2), with meropenem” value (P. aeruginosa strains; strain CFS 1292) was 0.219. For the same molecule, the “FICI value (Run #1), with meropenem” value (P. aeruginosa strains; strain CFS 1557 (PA19)) was 0.1562, the “FICI value (Run #2), with meropenem” value (P. aeruginosa strains; strain CFS 1557 (PA19)) was 0.198 and the “FICI value (Run #1), with meropenem” value (P. aeruginosa strains; strain CFS 1558 (PA20)) was 0.09375. The “FICI value (Run #2), with meropenem” value (P. aeruginosa strains; strain CFS 1558 (PA20)) was 0.135, the “FICI value (Run #2), with meropenem” value (P. aeruginosa strains; strain CFS 1559 (PA21)) was 0.396 and the “FICI value (Run #2), with meropenem” value (P. aeruginosa strains; strain CFS 1560 (PA22)) was 0.229. The “FICI value (Run #2), with meropenem” value (P. aeruginosa strains; strain CFS 1561 (PA23)) was 0.323, the “FICI value (Run #2), with meropenem” value (P. aeruginosa strains; strain CFS 1562 (PA24)) was 0.198 and the “FICI value (Run #2), with meropenem” value (P. aeruginosa strains; strain CFS 1766 (ATCC 27853)) was 0.156. For the same molecule, the “resensitization to carbapenems in synergistic combinations” value ([7]; imipenem (IPM) and meropenem (MEM), carbapenem-resistant isolates) was “reductions of IPM and MEM MICS to below breakpoint values”, the FICI ([7]; lysin + imipenem) was 0.188 and the FICI ([7]; lysin + meropenem) was 0.188. The “Antibiotic MIC / Lysin MIC, Alone” value ([7]; vs. WC-452 (Table 22)) was 2.

B2: GN11: lysin obtained from Pseudomonas putida KT2440 (SEQ ID NO: 208) (protein, listed as Pseudomonas putida)
chain: MTYNAGTKPRAETDYLVVHCSATRPSQDIGAADINRWHRAKGWRCIGYHFVIRRNGVVEEGRELDQIGAHVEGHNINSVGICMAGGVTEADINVPENNFTPEQFASLKHLLGELKEKYPSATIQGHRDFPKVAKACPSFDVKPWVAANL
For B2, the “activity in CAA supplemented with human serum (25%)” value [8] was “active”, the “CAA MIC” value [8] was 32 and the “CAA/HuS MIC” value [8] was 128. For the same molecule, the “HEPES (Log10 CFU/mL), 1 hr” value [2] was 6.7 Log10 CFU/mL, the “HEPES (Log10 CFU/mL), 3 hr” value [2] was under 3.7 Log10 CFU/mL and the “pI (isoelectric point)” value [9] was 7.3.

B3: GN7: lysin obtained from a marine metagenome (SEQ ID NO: 206) (protein)
chain: MTPFDHALELTLGLEGGYSNHLMDRGGETMCGITEAVARRHGWEGEMRDLPIEMVRHIYKVDYWDPLMGDYLGEHNPELAEELFDTAVNCGVGFASKILQKSINVLNRNRTEDIAEDGQIGPQTLKALRDLARRDYDYLLECCKILQGNHYISLAHRDPTQRIFIRGWLTRV
modifications: GOS_4958713 hypothetical protein GOS_4958713, partial [marine metagenome]
With B3 the “activity in CAA supplemented with human serum (25%)” value [8] was “active”, the “CAA MIC” value [8] was over 128 and the “CAA/HuS MIC” value [8] was 128. For the same molecule, the “HEPES (Log10 CFU/mL), 1 hr” value [2] was 7.5 Log10 CFU/mL, the “HEPES (Log10 CFU/mL), 3 hr” value [2] was 6.2 Log10 CFU/mL and the “CAA/HuS (Log10 CFU/mL), 1 hr” value [2] was 7.0 Log10 CFU/mL. The “CAA/HuS (Log10 CFU/mL), 3 hr” value [2] was 7.0 Log10 CFU/mL and the “pI (isoelectric point)” value [9] was 5.6.
